Measured values from the Immune Epitope Database (IEDB).

Legend:
[1] = biological target: HLA-A*02:01; assay: IEDB peptide-MHC binding, purified MHC/direct/fluorescence; filed as Kd, often an IC50 or EC50 that approximates it; ≥ and ≤ were set here for values at or beyond the usual limits of such assays
[2] = biological target: HLA-A*69:01; assay: as above
[3] = biological target: HLA-A*23:01; assay: IEDB peptide-MHC binding, purified MHC/competitive/radioactivity; filed as Kd, often an IC50 or EC50 that approximates it; ≥ and ≤ were set here for values at or beyond the usual limits of such assays
[4] = biological target: HLA-A*24:02; assay: as above
[5] = biological target: HLA-A*26:01; assay: as above
[6] = biological target: HLA-A*32:01; assay: as above
[7] = biological target: HLA-A*02:03; assay: as above
[8] = biological target: HLA-A*02:02; assay: as above
[9] = biological target: HLA-A*02:06; assay: as above
[10] = biological target: HLA-B*58:01; assay: IEDB peptide-MHC binding, purified MHC/direct/fluorescence; filed as Kd, often an IC50 or EC50 that approximates it; ≥ and ≤ were set here for values at or beyond the usual limits of such assays
[11] = biological target: HLA-A*03:01; assay: as above
[12] = biological target: HLA-B*15:01; assay: as above
[13] = biological target: HLA-A*01:01; assay: as above; conditions: source organism: Homo sapiens
[14] = biological target: HLA-A*11:01; assay: as above
[15] = biological target: HLA-B*40:01; assay: as above
[16] = biological target: HLA-A*11:01; assay: IEDB peptide-MHC binding, purified MHC/competitive/radioactivity; filed as Kd, often an IC50 or EC50 that approximates it; ≥ and ≤ were set here for values at or beyond the usual limits of such assays; conditions: source organism: Dengue virus 1 Brazil/97-11/1997
[17] = source organism: Giardia lamblia ATCC 50803
[18] = source organism: Vaccinia virus WR
[19] = source organism: Dengue virus 1 Brazil/97-11/1997
[20] = source organism: Dengue virus 3 Martinique/1243/1999
[21] = source organism: Dengue virus 4 Philippines/H241/1956
[22] = source organism: Dengue virus 2 Jamaica/1409/1983
[23] = source organism: Burkholderia ambifaria AMMD
[24] = source organism: Dengue virus 2 Peru/IQT2913/1996
[25] = source organism: Salmonella enterica subsp. enterica serovar Typhimurium
[26] = source organism: Pseudomonas aeruginosa
[27] = source organism: Dengue virus 1 Nauru/West Pac/1974
[28] = source organism: Mycobacterium tuberculosis
[29] = source organism: Rickettsia conorii
[30] = source organism: Cryptosporidium parvum
[31] = source organism: SARS coronavirus Tor2

Sequence | Kd [7, 18] | Kd [8, 18] | Kd [9, 18] | also measured
SLNPYYQSY |  |  |  | Kd [1, 17]: ≥ 20000 nM; Kd [2, 17]: ≥ 20000 nM
DMCDIYLLY |  |  |  | Kd [3, 18]: 216 nM; Kd [4, 18]: 2070 nM
EHALLATSIF |  |  |  | Kd [5, 19]: ≥ 22400 nM; Kd [3, 19]: 4610 nM
STIANSNII | 1470 nM | 6120 nM | 1240 nM | Kd [6, 18]: 14.3 nM
SLGILCVSI |  |  |  | Kd [6, 19]: 238 nM
GVPPLPLFIF |  |  |  | Kd [4, 20]: 494 nM
SWALCEALTL |  |  |  | Kd [3, 20]: 429 nM; Kd [4, 20]: 500 nM
KLALITVSG |  |  |  | Kd [6, 21]: 82.8 nM
SSVSSFERF |  |  |  | Kd ([10]; source organism: Influenza A virus (A/camel/Mongolia/1982(H1N1))): 72.5 nM
TVITPMLRH |  |  |  | Kd [5, 20]: 14300 nM
DFKGKTVWF |  |  |  | Kd [3, 22]: 14400 nM
RSCTLPPLRF |  |  |  | Kd [3, 19]: 2520 nM; Kd [4, 19]: 10700 nM
WNSGYDWITD |  |  |  | Kd [6, 19]: 4830 nM
ITISEDGSM |  |  |  | Kd [5, 22]: 2990 nM
YLNGGRRGY |  |  |  | Kd [1, 23]: ≥ 20000 nM; Kd [2, 23]: ≥ 20000 nM
EYVKTRTNDW |  |  |  | Kd [3, 24]: 3410 nM; Kd [4, 24]: 2170 nM
YVIKVSARV |  |  |  | Kd ([5]; source organism: Homo sapiens): 8.61 nM
KYLYLWSFK |  |  |  | Kd ([11]; source organism: Clostridium botulinum): 167 nM
AYMIGQTGI |  |  |  | Kd [4, 21]: 93 nM
IQRDQVTDY |  |  |  | Kd [12, 25]: 239 nM
STDHIPILY |  |  |  | Kd ([10]; source organism: Homo sapiens): 2030 nM; Kd [13]: 148 nM; Kd ([2]; source organism: Homo sapiens): 7420 nM; Kd ([14]; source organism: Homo sapiens): 381 nM; Kd ([11]; source organism: Homo sapiens): 3150 nM
GPISTLWEGN |  |  |  | Kd [6, 22]: 9040 nM
GVFKVWHPI |  |  |  | Kd [1, 26]: 5720 nM; Kd [2, 26]: 1340 nM; Kd [14, 26]: 6490 nM
EVTARWLWGF |  |  |  | Kd ([5]; source organism: Dengue virus 1 Singapore/S275/1990): 32.7 nM
RSIMGSNNI |  |  |  | Kd [6, 18]: 141 nM
RTAGMIIML |  |  |  | Kd [6, 24]: 96.5 nM

Sequence | Kd [7, 18] | Kd [8, 18] | Kd [9, 18] | also measured
SIRCVKYLL | 55.7 nM | 107 nM | 2880 nM | 
IFGTAYGVLF |  |  |  | Kd [3, 27]: 10.4 nM; Kd [4, 27]: 37.6 nM
EAILPEYGTL |  |  |  | Kd [5, 20]: 13900 nM
ATFLWWIPL |  |  |  | Kd ([14]; source organism: Bacillus anthracis): 12.4 nM
YTQLRFPKK |  |  |  | Kd [14, 28]: 4.3 nM; Kd [11, 28]: 493 nM
FHMDPSGTF |  |  |  | Kd ([1]; source organism: Homo sapiens): 14400 nM; Kd ([12]; source organism: Homo sapiens): 465 nM
GSPGKFWNTT |  |  |  | Kd [6, 19]: ≥ 25700 nM
TLYNHHRQY |  |  |  | Kd ([11]; source organism: Burkholderia mallei): 46 nM
ELLSHVGQA |  |  |  | Kd [1, 25]: 3590 nM; Kd [2, 25]: 63.1 nM
WYMWLGARF |  |  |  | Kd [3, 22]: 20.2 nM; Kd [4, 22]: 16.2 nM
TLVKSGLTEV | 2.93 nM | 64.1 nM | 45.1 nM | 
IIMFDAEKL |  |  |  | Kd [12, 29]: 3350 nM; Kd [2, 29]: 1110 nM
KINNFANEF |  |  |  | Kd [6, 18]: 2.08 nM
EIKAEMQLKI | 4760 nM | 16900 nM | 14300 nM | 
LFKTNTGTI |  |  |  | Kd [4, 22]: 1280 nM
IVNTTYDFLA | 8270 nM | 1250 nM | 956 nM | 
IIIFFIVLI |  |  |  | Kd [6, 18]: 13.7 nM
PISDYSAEV | 267 nM | 716 nM | 2800 nM | 
YIAGLKIEEI | 5.3 nM | 8.92 nM | 134 nM | 
DVCKKNLDL | 8020 nM | ≥ 25400 nM | 16300 nM | 
AFLPWHRLF |  |  |  | Kd ([4]; source organism: Homo sapiens): 20 nM
LTARATWATN |  |  |  | Kd [6, 19]: ≥ 44400 nM
FIQWTGGNI | 54.7 nM | 683 nM | 5910 nM | 
VMPEKRNVV | 23 nM | 1100 nM | 3290 nM | 
MICCDSRIVV | 392 nM | 665 nM | 51.9 nM | 
IISSKQYPA | 612 nM | 164 nM | 1160 nM | 

Sequence | Kd [7, 18] | Kd [8, 18] | Kd [9, 18] | also measured
KMFNSVGGA |  |  |  | Kd [1, 30]: 26 nM; Kd [2, 30]: ≥ 20000 nM
RAAIDRQVSV | 40.8 nM | 626 nM | 212 nM | 
EYQKTKNNDW |  |  |  | Kd [3, 19]: ≥ 33600 nM; Kd [4, 19]: 19700 nM
SICEIVYSF |  |  |  | Kd [6, 18]: 0.352 nM
QTLISLNSM | ≥ 39300 nM | 19400 nM | 7510 nM | 
EYPKTKLTDW |  |  |  | Kd [3, 21]: 2550 nM; Kd [4, 21]: 954 nM
LMWFIISIV |  |  |  | Kd [7, 31]: 7.18 nM; Kd [8, 31]: 60.1 nM; Kd [9, 31]: 26.8 nM
VTLFIDRGSI | 2250 nM | 3830 nM | 3010 nM | 
IINKFFEVI |  |  |  | Kd [6, 18]: 11.1 nM
ELKDLLNVT | 209 nM | 1540 nM | ≥ 38400 nM | 
NVTYNIKPV | 153 nM | ≥ 22800 nM | 855 nM | 
NALKINWYKK |  |  |  | Kd [6, 20]: 2140 nM
TEEAFKIGL |  |  |  | Kd ([15]; source organism: Mammarenavirus juninense): 0.3 nM
YVIPDELIDV | 13.9 nM | 18.1 nM | 12.3 nM | 
VQSVLRDISI | 541 nM | 77.9 nM | 132 nM | 
AGILKRWGQL |  |  |  | Kd [6, 21]: 4440 nM
ETMYLTMKA | 942 nM | 7850 nM | 12700 nM | 
ETLLLLTLLA |  |  |  | Kd [5, 22]: ≥ 22700 nM
RVTKRDESSI | 10700 nM | 12300 nM | ≥ 22200 nM | 
FTEGKINPLL | 595 nM | 150 nM | 85.8 nM | 
LANERYRSA | 554 nM | ≥ 31300 nM | ≥ 77100 nM | 
DIKYDNKLL | ≥ 49800 nM | 1420 nM | ≥ 77100 nM | 
FVDTMSIYIA | 2390 nM | 154 nM | 1100 nM | 
ITINYFLLL |  |  |  | Kd [6, 18]: ≥ 77800 nM
IINSVSIIL | 2900 nM | 705 nM | ≥ 25900 nM | 
TINALVYFST | 7340 nM | 14100 nM | ≥ 62200 nM | 

Sequence | Kd [7, 18] | Kd [8, 18] | Kd [9, 18] | also measured
KALKLSWFKK |  |  |  | Kd [6, 19]: 9280 nM; Kd [16]: 135 nM
ELTNKKYRCM | ≥ 70400 nM | ≥ 70000 nM | ≥ 69800 nM | 
WLVHKQWFLD |  |  |  | Kd [6, 19]: 2070 nM
GVSGGSWVDI |  |  |  | Kd [6, 22]: 4310 nM
TLISSDGARV | 133 nM | 142 nM | 1220 nM | 
SMYVIPDELI | 114 nM | 30.7 nM | 492 nM | 
KILLVAVSI |  |  |  | Kd ([6]; source organism: Vaccinia virus Copenhagen): 1.54 nM
LLLEWLAEVV |  |  |  | Kd [7, 31]: 0.813 nM; Kd [8, 31]: 0.31 nM; Kd [9, 31]: 0.525 nM
SMTSDSKSI | 2300 nM | 8350 nM | ≥ 55800 nM | 
YQGKTVWFVP |  |  |  | Kd [6, 21]: 8500 nM
FASADNHPKM | ≥ 47400 nM | ≥ 70000 nM | ≥ 69800 nM | 
ILDNLRCHSA | 69.3 nM | 972 nM | 297 nM | 
HLMSDNPKA | 279 nM | 56.9 nM | 523 nM | 
DINFITVNI |  |  |  | Kd [6, 18]: 424 nM
AMLKSKNINI | 223 nM | 1650 nM | 200 nM | 
NACDKHNKT | 9250 nM | 17900 nM | 18600 nM | 
PLIISTDQDT | ≥ 35600 nM | ≥ 45000 nM | ≥ 47400 nM | 
FIISTLNKI | 0.418 nM | 1.65 nM | 5.84 nM | 
KTIISEEYL | 1220 nM | 916 nM | 150 nM | 
MIYDLNAVTT | 477 nM | 897 nM | 429 nM | 
VILKDPRIA | 603 nM | 10600 nM | 318 nM | 
IISYIILFI | 58.7 nM | 2.78 nM | 27.1 nM | Kd [6, 18]: ≥ 27600 nM
SLKRFTHTTA | 726 nM | 884 nM | 7320 nM | 
SEVSNVQRL |  |  |  | Kd ([15]; source organism: Mammarenavirus lassaense): 70.9 nM
FISYNRHNDT | 4930 nM | 6840 nM | 11300 nM | 
RLVDSIVSW |  |  |  | Kd ([10]; source organism: Influenza A virus (A/Istanbul/CTF/10/2004(H3N2))): 49.1 nM
